The record followed here is IntAct's records for PubMed 21360678.

B1: Serine/threonine-protein phosphatase 5 (Homo sapiens), P53041 (parent)
chain: MAMAEGERTECAEPPRDEPPADGALKRAEELKTQANDYFKAKDYENAIKFYSQAIELNPSNAIYYGNRSLAYLRTECYGYALGDATRAIELDKKYIKGYYRRAASNMALGKFRAALRDYETVVKVKPHDKDAKMKYQECNKIVKQKAFERAIAGDEHKRSVVDSLDIESMTIEDEYSGPKLEDGKVTISFMKELMQWYKDQKKLHRKCAYQILVQVKEVLSKLSTLVETTLKETEKITVCGDTHGQFYDLLNIFELNGLPSETNPYIFNGDFVDRGSFSVEVILTLFGFKLLYPDHFHLLRGNHETDNMNQIYGFEGEVKAKYTAQMYELFSEVFEWLPLAQCINGKVLIMHGGLFSEDGVTLDDIRKIERNRQPPDSGPMCDLLWSDPQPQNGRSISKRGVSCQFGPDVTKAFLEENNLDYIIRSHEVKAEGYEVAHGGRCVTVFSAPNYCDQMGNKASYIHLQGSDLRPQFHQFTAVPHPNVKPMAYANTLLQLGMM
partner: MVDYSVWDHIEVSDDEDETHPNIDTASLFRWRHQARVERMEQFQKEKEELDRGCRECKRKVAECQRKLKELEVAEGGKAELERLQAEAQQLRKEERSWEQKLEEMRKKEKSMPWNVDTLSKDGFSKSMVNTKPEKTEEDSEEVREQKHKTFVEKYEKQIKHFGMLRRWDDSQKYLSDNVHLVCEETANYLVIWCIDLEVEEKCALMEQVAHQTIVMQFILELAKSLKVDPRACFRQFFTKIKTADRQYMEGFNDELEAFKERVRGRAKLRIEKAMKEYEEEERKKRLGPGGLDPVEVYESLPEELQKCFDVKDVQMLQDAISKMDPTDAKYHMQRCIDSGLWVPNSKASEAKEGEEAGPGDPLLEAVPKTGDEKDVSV

The assay covers variants of B1. The following applies: with cdc37_human CDC37, Q16543.
Regarding MAMAEGERTECAEPPRDEPPADGALKRAEELKTQANDYFKAKDYENAIKFYSQAIELNPSNAIYYGNRSLAYLRTECYGYALGDATRAIELDKKYIAGYYARAASNMALGKFRAALRDYETVVKVKPHDKDAKMKYQECNKIVKQKAFERAIAGDEHKRSVVDSLDIESMTIEDEYSGPKLEDGKVTISFMKELMQWYKDQKKLHRKCAYQILVQVKEVLSKLSTLVETTLKETEKITVCGDTHGQFYDLLNIFELNGLPSETNPYIFNGDFVDRGSFSVEVILTLFGFKLLYPDHFHLLRGNHETDNMNQIYGFEGEVKAKYTAQMYELFSEVFEWLPLAQCINGKVLIMHGGLFSEDGVTLDDIRKIERNRQPPDSGPMCDLLWSDPQPQNGRSISKRGVSCQFGPDVTKAFLEENNLDYIIRSHEVKAEGYEVAHGGRCVTVFSAPNYCDQMGNKASYIHLQGSDLRPQFHQFTAVPHPNVKPMAYANTLLQLGMM [K97A;R101A], the “effect of a mutation on the interaction” value is given as “disrupting interaction”.
